Experimental data as given in patent US20060084157A1.
Each block holds one molecule with its values, some of them ahead of it.

Assays:
[1] = target: Purified Fe-hydrogenase HydA of Scenedesmus obliquus (native enzyme) (Scenedesmus obliquus); assay: cell-based or functional assay
[2] = target: ferredoxin (source not stated, Table I)

Sequence of Purified Fe-hydrogenase HydA of Scenedesmus obliquus (native enzyme) (Scenedesmus obliquus) (chain, as listed by the source): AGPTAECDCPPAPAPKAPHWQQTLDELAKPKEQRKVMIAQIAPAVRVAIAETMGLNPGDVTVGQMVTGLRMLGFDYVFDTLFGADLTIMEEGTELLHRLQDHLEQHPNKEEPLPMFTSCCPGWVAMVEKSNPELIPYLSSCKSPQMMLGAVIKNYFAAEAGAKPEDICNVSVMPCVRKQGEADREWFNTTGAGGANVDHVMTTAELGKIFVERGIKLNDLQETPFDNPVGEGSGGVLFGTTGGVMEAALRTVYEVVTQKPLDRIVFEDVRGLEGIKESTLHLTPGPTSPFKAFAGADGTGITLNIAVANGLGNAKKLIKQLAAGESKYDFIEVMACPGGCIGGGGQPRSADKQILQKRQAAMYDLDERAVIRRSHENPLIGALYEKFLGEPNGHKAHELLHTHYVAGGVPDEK

- H2-evolving activity (in vitro, dithionite as reducing reagent) [1]: 390 U/mg protein
Molecule: Ferredoxin (PetF) of Chlamydomonas reinhardtii (from UniProt P07839 33-126)

- H2-evolving activity (in vitro, dithionite as reducing reagent) [1]: 420 U/mg protein
Molecule: Ferredoxin (PetF) of Scenedesmus obliquus

- H2-evolving activity (in vitro, dithionite as reducing reagent) [1]: 350 U/mg protein
Molecule: Spinach ferredoxin (PetF) (from UniProt P00221 51-147)

B1: Fe-hydrogenase HydA of Chlamydomonas reinhardtii (native mature enzyme) (protein)
chain: AAPAAEAPLSHVQQALAELAKPKDDPTRKHVCVQVAPAVRVAIAETLGLAPGATTPKQLAEGLRRLGFDEVFDTLFGADLTIMEEGSELLHRLTEHLEAHPHSDEPLPMFTSCCPGWIAMLEKSYPDLIPYVSSCKSPQMMLAAMVKSYLAEKKGIAPKDMVMVSIMPCTRKQSEADRDWFCVDADPTLRQLDHVITTVELGNIFKERGINLAELPEGEWDNPMGVGSGAGVLFGTTGGVMEAALRTAYELFTGTPLPRLSLSEVRGMDGIKETNITMVPAPGSKFEELLKHRAAARAEAAAHGTPGPLAWDGGAGFTSEDGRGGITLRVAVANGLGNAKKLITKMQAGEAKYDFVEIMACPAGCVGGGGQPRSTDKAITQKRQAALYNLDEKSTLRRSHENPSIRELYDTYLGEPLGHKAHELLHTHYVAGGVEEKDEKK
- KM value (ferredoxin) [2]: 35 µM
